In general, Kd refers to a measure of binding affinity in units of concentration. In general, IC50 refers to the point on the concentration scale where inhibition reaches its midpoint.

For one test, the target named is HLA-A*30:01. The test is described as follows: IEDB peptide-MHC binding, purified MHC/competitive/radioactivity; filed as Kd, often an IC50 or EC50 that approximates it; ≥ and ≤ were set here for values at or beyond the usual limits of such assays.
For the next test, the target named is HLA-A*01:01. The description is as above.
The target of a further test is HLA-A*23:01. The description is as above.
The next test concerns the target HLA-A*24:02. The description is as above.
Another test deals with HLA-A*26:01. Described as above.
Another test addresses HLA-A*29:02. The description is as above.
Another test addresses HLA-A*30:02. The test is described as above.
In another test the target is HLA-A*03:01. Described as above. Particulars: source organism: Dengue virus 2 Jamaica/1409/1983.
A further test addresses HLA-A*02:01. In words: IEDB peptide-MHC binding, purified MHC/competitive/fluorescence; ≥ and ≤ were set here for values at or beyond the usual limits of such assays. Particulars: source organism: Zaire ebolavirus.
A further test addresses HLA-A*11:01. In words: IEDB peptide-MHC binding, purified MHC/competitive/radioactivity; filed as Kd, often an IC50 or EC50 that approximates it; ≥ and ≤ were set here for values at or beyond the usual limits of such assays. Particulars: source organism: Dengue virus 2 Jamaica/1409/1983.
Setting [1] is: source organism: Vaccinia virus WR.
Setting [2] is: source organism: SARS coronavirus Tor2.
The mark [3] stands for this setting: source organism: Mammarenavirus brazilense.
The mark [4] stands for this setting: source organism: Dengue virus 2 Jamaica/1409/1983.
Setting [5] is: source organism: Dengue virus 3 Martinique/1243/1999.
[6] abbreviates: source organism: Dengue virus 4 Philippines/H241/1956.
Where [7] appears, read: source organism: Lassa virus Josiah.

As to GTKIALLEL, in the test with HLA-A*30:01 (setting [1]), the Kd amounted to 0.00134 µM.
Regarding KVHEISARG, in the test with HLA-A*30:01 (setting [1]), the Kd is 0.176 µM.
As to FYFTNDVSF, the Kd with HLA-A*01:01 (setting [2]) was 17.1 µM; with HLA-A*23:01 (setting [2]) it was 1490 nM; in the test with HLA-A*24:02 (setting [2]), 2.8 µM; with HLA-A*26:01 (setting [2]), not below 22.3 µM; in the test with HLA-A*29:02 (setting [2]), 0.413 µM; with HLA-A*30:02 (setting [2]) it was not below 96.8 µM.
Regarding GSDDIRRLV, the Kd in the test with HLA-A*01:01 (setting [3]) is not below 44.5 µM; with HLA-A*23:01 (setting [3]), not below 77700 nM; with HLA-A*24:02 (setting [3]), not below 77.5 µM; in the test with HLA-A*26:01 (setting [3]) it was not below 77.9 µM; in the test with HLA-A*29:02 (setting [3]), not below 78.9 µM; with HLA-A*30:02 (setting [3]) it was not below 76.9 µM.
Regarding ALTLATGPIS, the equilibrium dissociation constant (Kd) with HLA-A*30:01 (setting [4]) turned out to be 0.22 µM.
Take YYSLLMPIL: the Kd with HLA-A*01:01 (setting [2]) is not below 78.1 µM; with HLA-A*23:01 (setting [2]) it was not below 43900 nM; with HLA-A*24:02 (setting [2]), not below 77.6 µM; with HLA-A*26:01 (setting [2]), 13.7 µM; in the test with HLA-A*29:02 (setting [2]), not below 75 µM; with HLA-A*30:02 (setting [2]), not below 81.1 µM.
For the sequence RVSTGSQLA, the Kd with HLA-A*30:01 (source organism: Dengue virus 1 Brazil/97-11/1997) turned out to be 0.0813 µM.
On to LWMAEIPLQW, for which the figures for the Kd in the test with HLA-A*23:01 (setting [5]) and in the test with HLA-A*24:02 (setting [5]) were 13.7 nM and 0.0386 µM, respectively.
Turning to EHSWNADLY, the Kd with HLA-A*01:01 (setting [2]) is not below 69.4 µM; in the test with HLA-A*23:01 (setting [2]), not below 77800 nM; in the test with HLA-A*24:02 (setting [2]), not below 77.6 µM; with HLA-A*26:01 (setting [2]) it was 4.41 µM; with HLA-A*29:02 (setting [2]) it was 0.295 µM; with HLA-A*30:02 (setting [2]), 0.0451 µM.
Take VYKEGTFHTM: the Kd with HLA-A*24:02 (setting [4]) was 0.0147 µM.
On to EWSVATFYLF, for which the Kd came out at 1.16 µM with HLA-A*01:01 (setting [2]); 0.0328 nM in the test with HLA-A*23:01 (setting [2]); 0.0272 µM in the test with HLA-A*24:02 (setting [2]); 0.0174 µM in the test with HLA-A*29:02 (setting [2]); 1.73 µM in the test with HLA-A*30:02 (setting [2]).
For RTTWSIHAK, the Kd was 0.00699 µM with HLA-A*03:01 and 0.0809 µM in the test with HLA-A*30:01 (setting [4]).
In the case of ERNRVSTPQG, in the test with HLA-A*30:01 (setting [6]), the Kd was 0.121 µM.
For TYHPNCINCL, the Kd was not below 70.4 µM in the test with HLA-A*01:01 (setting [2]); 1150 nM with HLA-A*23:01 (setting [2]); 0.663 µM with HLA-A*24:02 (setting [2]); not below 69.7 µM with HLA-A*26:01 (setting [2]); 5.58 µM in the test with HLA-A*29:02 (setting [2]); not below 37.2 µM in the test with HLA-A*30:02 (setting [2]).
As to LLEIKDKEQY, the Kd was 0.936 µM in the test with HLA-A*01:01 (setting [2]); not below 70000 nM with HLA-A*23:01 (setting [2]); 10.9 µM with HLA-A*24:02 (setting [2]); not below 82.8 µM in the test with HLA-A*26:01 (setting [2]); 3.53 µM with HLA-A*29:02 (setting [2]); 1.27 µM with HLA-A*30:02 (setting [2]).
For the sequence DEEGNLLDSY, the Kd with HLA-A*01:01 (setting [2]) was not below 92.6 µM; in the test with HLA-A*23:01 (setting [2]), not below 58100 nM; with HLA-A*24:02 (setting [2]), not below 70.3 µM; with HLA-A*26:01 (setting [2]), not below 71.6 µM; in the test with HLA-A*29:02 (setting [2]), 7.26 µM; with HLA-A*30:02 (setting [2]), 8.98 µM.
In the test with HLA-A*02:01, RSEELSFTV returned an IC50 of 2.38 µM. This lies in the single-digit micromolar range.
FFQEVPHVI: the Kd with HLA-A*23:01 (setting [7]) turned out to be 239 nM; with HLA-A*24:02 (setting [7]) it was 0.713 µM; with HLA-A*29:02 (setting [7]), 0.508 µM.
In turn, GLITNTIAG came in with an IC50 with HLA-A*02:01 of 4.1 µM.
The same measure, in the same setting: with AIVNAQPKC the figure was not below 73.8 µM; with EQGLIQYPT, 60.5 µM.
For KISISSLCK, the Kd with HLA-A*30:01 (setting [1]) worked out at 0.0881 µM.
As for VYALCTLLHL, the Kd with HLA-A*01:01 (setting [2]) is 19.9 µM; with HLA-A*23:01 (setting [2]) it was 39.8 nM; with HLA-A*24:02 (setting [2]) it was 0.0767 µM; with HLA-A*26:01 (setting [2]), 14 µM; with HLA-A*29:02 (setting [2]), 5.57 µM; with HLA-A*30:02 (setting [2]) it was not below 100 µM.
Regarding LYIAENGEL, the Kd with HLA-A*23:01 (setting [3]) was 247 nM; with HLA-A*24:02 (setting [3]), 1.68 µM; in the test with HLA-A*29:02 (setting [3]), not below 20.7 µM.
For the sequence HSLISNLLV, the Kd with HLA-A*30:01 (source organism: Vaccinia virus Copenhagen) came out at 0.558 µM.
For HVKIPTHLT, in the test with HLA-A*30:01 (setting [1]), the Kd came to 0.224 µM.
For the sequence ESWILRNPGF, the figures for the Kd in the test with HLA-A*26:01 (setting [6]) and with HLA-A*30:01 (setting [6]) were 9.73 µM and 0.427 µM, respectively.
In the case of SILASSLLK, the Kd is 0.0138 µM in the test with HLA-A*03:01, 0.011 µM with HLA-A*11:01 and 0.19 µM with HLA-A*30:01 (setting [4]).
For the sequence QDQDHTQEA, the IC50 with HLA-A*02:01 is not below 321 µM.
For TSSGDATTAY, the Kd in the test with HLA-A*01:01 (setting [2]) is 0.0638 µM; with HLA-A*23:01 (setting [2]), not below 70000 nM; in the test with HLA-A*24:02 (setting [2]), not below 70.3 µM; in the test with HLA-A*26:01 (setting [2]), 0.646 µM; in the test with HLA-A*29:02 (setting [2]) it was 0.0988 µM; with HLA-A*30:02 (setting [2]), 0.606 µM.

Source of the values: the Immune Epitope Database (IEDB).
